Experiment [1] has as its target T1, yeast small ubiquitin-like modifier (ySUMO) (yeast, UniProt Q12306 1-98 = SUMO, limits assumed).
T1 construct: Target protein of the library selection; Construct not described
Nature of the experiment: yeast surface display: therMonobody on yeast, soluble target titrated 0-2000 nM, mean fluorescence, fit of the 1:1 binding model. An excerpt: (§1) FIG. 6A-C. therMonobody library designs and generated clones. Amino acid sequences of therMonobodies generated from the loop-only library (a) and the side-and-loop library (b). The locations of diversified residues in the libraries are shown as spheres on the STOTEMP4 structure. “X” denotes a mixture of 30% Tyr, 13% Ser, 10% Gly, 5% Asp, 5% Leu, 5% Pro, 5% Trp and 2.5% each of all pther amino acids except for Cys and Met; “B”, a mixture of Ala, Ser, Thr, Asn, Asp and Tyr; “U”, a mixture of Ser, Thr, Asn and Tyr; “Z”, a mixture of Ala, Glu, Lys and Thr. (c) Binding measurements by yeast surface display of representative therMonobodies for each combination of library and target. The mean fluorescence intensities of yeast cells displaying therMonobodies are plotted as a function of the target concentration. The error indicated are the standard deviations from curve fitting of the 1:1 binding model.

For experiment [2], the target named is T1, yeast small ubiquitin-like modifier …. The experiment in a line: yeast surface display titration, KD column of the drawn table [b].
For experiment [3], the target named is T2, maltose-binding protein (MBP) (UniProt P0AEX9 27-396 = MBP). The experiment is described as above.
In experiment [4] the target is T2, maltose-binding protein (MBP). Nature of the experiment: yeast surface display: therMonobody on yeast, soluble target titrated 0-1000 nM, mean fluorescence, fit of the 1:1 binding model.
Description: as §1

For experiment [5], the target named is T3, Abl SH2 (UniProt P00519 127-217, limits assumed).
T3 construct: domain: SH2; Target protein of the library selection
T3 sequence (looked up): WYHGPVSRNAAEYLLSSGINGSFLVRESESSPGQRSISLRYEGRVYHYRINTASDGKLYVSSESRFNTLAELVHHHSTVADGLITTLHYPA
Nature of the experiment: yeast surface display titration, KD column of the drawn table [a].

Experiment [6] deals with T3, Abl SH2. The experiment in a line: yeast surface display: therMonobody on yeast, soluble target titrated 0-1000 nM, mean fluorescence, fit of the 1:1 binding model.
Description: as §1

In experiment [7] the target is T3, Abl SH2. The experiment in a line: yeast surface display titration, KD column of the drawn table [b].
For experiment [8], the target named is T2, maltose-binding protein (MBP). The experiment in a line: yeast surface display titration, KD column of the drawn table [a].
The target in experiment [9] is T1, yeast small ubiquitin-like modifier …. The experiment is described as above.

The record followed here is patent publication US20210079063A1 (UNIVERSITY OF CHICAGO, published 2021).

One may read the Kd as a measure of binding affinity in units of concentration.

T1 sequence (Q12306 1-98 limits assumed): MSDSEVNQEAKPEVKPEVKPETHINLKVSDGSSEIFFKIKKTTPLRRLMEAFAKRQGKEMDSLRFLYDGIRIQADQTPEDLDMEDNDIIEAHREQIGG

B1: SUMOMbS34 (designed binder)
therMonobody (FN3 domain): SSSSVPQIASIASGPETITVKWYDTNASYYYIYYWSGPYYYKKVTITVGNVTSYTIKHLKPGVTYYIQIVPYHVHDWGYYYYPSDIISATPSSS
notes: side-and-loop library clone selected on ySUMO
B1: the dissociation constant (Kd) in experiment [1] and in [2] was 20 nM throughout.

B2: MBPMbS12 (designed binder)
therMonobody (FN3 domain): SSSSVPQIASIASGPETITVKWYDTNASYYYISYWSGQSETVAIEVGNVTSYTIKHLKPGVTYYIQIVPYYPGYYPVHYVPSDIISATPSSS
notes: side-and-loop library clone selected on MBP
In the case of B2, in experiment [3], the Kd came out at 484 nM.

B3: MBPMbS09 (designed binder)
therMonobody (FN3 domain): SSSSVPQIASIASGPETITVKWYDTNASYYYISYWSYSTATVAIAVGNVTSYTIKHLKPGVTYYIQIVPYYGYRPYPSYGYPSDIISATPSSS
notes: as for B2
B3: the Kd in [4] and in [3] was 9 nM in each case.

B4: AblSH2MbL04 (designed binder)
therMonobody (FN3 domain): SSSSVPQIASIASGPETITVKWYYYSIDVYYYITYWSSSSQKVTINVGPQTSYTIKHLKPGVTYYIQIVPYSFYSDSDYGYYPSDIISATPSSS
notes: loop-only library clone selected on Abl SH2
In the case of B4, the dissociation constant Kd in the experiment with Abl SH2 [5] and with Abl SH2 [6] was 78 nM each time.

B5: AblSH2MbS07 (designed binder)
therMonobody (FN3 domain): SSSSVPQIASIASGPETITVKWYDTNASYYYIYYWSSYPVTEEVEIKVGNVTSYTIKHLKPGVTYYIQIVPGYYSYPYYLSPSDIISATPSSS
notes: side-and-loop library clone selected on Abl SH2
As for B5, the Kd with Abl SH2 [7] stood at 827 nM.

B6: MBPMbL08 (designed binder)
therMonobody (FN3 domain): SSSSVPQIASIASGPETITVKWYWSSYYWSPFYYYITYWSSSSQKVTINVGNVTSYTIKHLKPGVTYYIQIVPYWYQYFPRYGYPSDIISATPSSS
notes: loop-only library clone selected on MBP
On to B6, for which the Kd in experiment [8] and in experiment [4] was 12 nM each time.

B7: SUMOMbS08 (designed binder)
therMonobody (FN3 domain): SSSSVPQIASIASGPETITVKWYDTNASYYYIYYWSLQYYREAVKIEVGNVTSYTIKHLKPGVTYYIQIVPFEEFGFGWYSGDPSDIISATPSSS
notes: as for B1
B7 had a Kd in experiment [2] of 65 nM.

B8: MBPMbS01 (designed binder)
therMonobody (FN3 domain): SSSSVPQIASIASGPETITVKWYDTNASYYYISYWSADYDSEAVAIAVGNVTSYTIKHLKPGVTYYIQIVPYKANSYYPGYGYPSDIISATPSSS
notes: as for B2
On to B8, for which the Kd in experiment [3] was found to be 33 nM.

B9: SUMOMbS20 (designed binder)
therMonobody (FN3 domain): SSSSVPQIASIAVGPETITVKWYDTNASYYYIYYWSKHPKKVKIEVGNVTSYTIKHLKPGVTYYIQIVPFISYYDLYYSGDPSDIISATPSSS
notes: as for B1
For the molecule B9, the Kd in experiment [2] came out at 95 nM.

B10: AblSH2MbS02 (designed binder)
therMonobody (FN3 domain): SSSSVPQIASIASGPETITVKWYDTNASFYYIYYWSTYPVTEEVEIKVGNVTSYTIKHLKPGVTYYIQIVPQYWYLGAGYPSDIISATPSSS
notes: as for B5
Turning to B10, the Kd with Abl SH2 [6] and with Abl SH2 [7] was 13 nM throughout.

B11: MBPMbL17 (designed binder)
therMonobody (FN3 domain): SSSSVPQIASIAVGPETITVKWYRIPHAYYYYITYWSSSSQKVTINVGNVTSYTIKHLKPGVTYYIQIVPYYPSPWYLSYGYPSDIISATPSSS
notes: as for B6
B11 came in with an equilibrium dissociation constant (Kd) in experiment [8] of 41 nM.

B12: SUMOMbL14 (designed binder)
therMonobody (FN3 domain): SSSSVPQIASIASGPETITVKWYDTNASYYYITYWSSSSQKVTINVGSPISYTIKHLKPGVTYYIQIVPYYTIGPDEYYYIPSDIISATPSSS
notes: loop-only library clone selected on ySUMO
For the molecule B12, the Kd in [1] and in [9] was 44 nM each time.
